The test system of the series is HeLa Kyoto. Nature of the series: melting temperature (median over replicates), in situ; higher = more thermally stable.

This passage reports melting temperature results from the supplement of paper PMC5998384.
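Further: HeLa Kyoto cells synchronized by double thymidine or nocodazole block, proteins quantified by TMT10plex mass spectrometry, three independent biological replicates.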

Chain of UBE2V1 (chain, as listed by the source): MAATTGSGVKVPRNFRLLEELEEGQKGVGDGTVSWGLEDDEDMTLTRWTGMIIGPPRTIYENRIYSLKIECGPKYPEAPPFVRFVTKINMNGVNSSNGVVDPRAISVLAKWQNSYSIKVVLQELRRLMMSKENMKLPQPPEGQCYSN

For the substance “MVGGGGVGGGLLENANPLIYQRSGERPVTAGEEDEQVPDSIDAREIFDLIRSINDPEHPLTLEELNVVEQVRVQVSDPESTVAVAFTPTIPHCSMATLIGLSIKVKLLRSLPQRFKMDVHITPGTHASEHAVNKQLADKERVAAALENTHLLEVVNQCLSARS [FAM96B]”, the melting temperature (cell cycle stage: G1/S) came out at 50.3 °C and the melting temperature (cell cycle stage: mitosis) stood at 52.7 °C.
The like results for “MNQENPPPYPGPGPTAPYPPYPPQPMGPGPMGGPYPPPQGYPYQGYPQYGWQGGPQEPPKTTVYVVEDQRRDELGPSTCLTACWTALCCCCLWDMLT [CYSTM1]” were, in that order, 59 °C and 52.8 °C.
For the substance “MAGSEPRSGTNSPPPPFSDWGRLEAAILSGWKTFWQSVSKERVARTTSREEVDEAASTLTRLPIDVQLYILSFLSPHDLCQLGSTNHYWNETVRDPILWRYFLLRDLPSWSSVDWKSLPDLEILKKPISEVTDGAFFDYMAVYRMCCPYTRRASKSSRPMYGAVTSFLHSLIIQNEPRFAMFGPGLEELNTSLVLSLMSSEELCPTAGLPQRQIDGIGSGVNFQLNNQHKFNILILYSTTRKERDRAREEHTSAVNKMFSRHNEGDDQQGSRYSVIPQIQKVCEVVDGFIYVANAEAHKRHEWQDEFSHIMAMTDPAFGSSGRPLLVLSCISQGDVKRMPCFYLAHELHLNLLNHPWLVQDTEAETLTGFLNGIEWILEEVESKRAR [FBXO4]”, the melting temperature (cell cycle stage: mitosis) was 52 °C.
On the same count and under the same terms, for “MSPLSAARAALRVYAVGAAVILAQLLRRCRGGFLEPVFPPRPDRVAIVTGGTDGIGYSTAKHLARLGMHVIIAGNNDSKAKQVVSKIKEETLNDKVEFLYCDLASMTSIRQFVQKFKMKKIPLHVLINNAGVMMVPQRKTRDGFEEHFGLNYLGHFLLTNLLLDTLKESGSPGHSARVVTVSSATHYVAELNMDDLQSSACYSPHAAYAQSKLALVLFTYHLQRLLAAEGSHVTANVVDPGVVNTDVYKHVFWATRLAKKLLGWLLFKTPDEGAWTSIYAAVTPELEGVGGHYLYNEKETKSLHVTYNQKLQQQLWSKSCEMTGVLDVTL [DHRSX]” the value was 52.9 °C.
As to “MDCEVNNGSSLRDECITNLLVFGFLQSCSDNSFRRELDALGHELPVLAPQWEGYDELQTDGNRSSHSRLGRIEADSESQEDIIRNIARHLAQVGDSMDRSIPPGLVNGLALQLRNTSRSEEDRNRDLATALEQLLQAYPRDMEKEKTMLVLALLLAKKVASHTPSLLRDVFHTTVNFINQNLRTYVRSLARNGMD [BID]”, the melting temperature was 52.8 °C (cell cycle stage: G1/S) and 55.5 °C (cell cycle stage: mitosis).
The like results for “MSSKRTKTKTKKRPQRATSNVFAMFDQSQIQEFKEAFNMIDQNRDGFIDKEDLHDMLASLGKNPTDEYLDAMMNEAPGPINFTMFLTMFGEKLNGTDPEDVIRNAFACFDEEATGTIQEDYLRELLTTMGDRFTDEEVDELYREAPIDKKGNFNYIEFTRILKHGAKDKDD [MYL12A]” were, in that order, 54 °C and 52.7 °C.
“MAGYEYVSPEQLAGFDKYKYSAVDTNPLSLYVMHPFWNTIVKVFPTWLAPNLITFSGFLLVVFNFLLMAYFDPDFYASAPGHKHVPDWVWIVVGILNFVAYTLDGVDGKQARRTNSSTPLGELFDHGLDSWSCVYFVVTVYSIFGRGSTGVSVFVLYLLLWVVLFSFILSHWEKYNTGILFLPWGYDISQVTISFVYIVTAVVGVEAWYEPFLFNFLYRDLFTAMIIGCALCVTLPMSLLNFFRSYKNNTLKLNSVYEAMVPLFSPCLLFILSTAWILWSPSDILELHPRVFYFMVGTAFANSTCQLIVCQMSSTRCPTLNWLLVPLFLVVLVVNLGVASYVESILLYTLTTAFTLAHIHYGVRVVKQLSSHFQIYPFSLRKPNSDULGMEEKNIGL [EPT1]” registered a melting temperature (cell cycle stage: G1/S) of 52.8 °C.
Regarding “MCVRSCFQSPRLQWVWRTAFLKHTQRRHQGSHRWTHLGGSTYRAVIFDMGGVLIPSPGRVAAEWEVQNRIPSGTILKALMEGGENGPWMRFMRAEITAEGFLREFGRLCSEMLKTSVPVDSFFSLLTSERVAKQFPVMTEAITQIRAKGLQTAVLSNNFYLPNQKSFLPLDRKQFDVIVESCMEGICKPDPRIYKLCLEQLGLQPSESIFLDDLGTNLKEAARLGIHTIKVNDPETAVKELEALLGFTLRVGVPNTRPVKKTMEIPKDSLQKYLKDLLGIQTTGPLELLQFDHGQSNPTYYIRLANRDLVLRKKPPGTLLPSAHAIEREFRIMKALANAGVPVPNVLDLCEDSSVIGTPFYVMEYCPGLIYKDPSLPGLEPSHRRAIYTAMNTVLCKIHSVDLQAVGLEDYGKQGDYIPRQVRTWVKQYRASETSTIPAMERLIEWLPLHLPRQQRTTVVHGDFRLDNLVFHPEEPEVLAVLDWELSTLGDPLADVAYSCLAHYLPSSFPVLRGINDCDLTQLGIPAAEEYFRMYCLQMGLPPTENWNFYMAFSFFRVAAILQGVYKRSLTGQASSTYAEQTGKLTEFVSNLAWDFAVKEGFRVFKEMPFTNPLTRSYHTWARPQSQWCPTGSRSYSSVPEASPAHTSRGGLVISPESLSPPVRELYHRLKHFMEQRVYPAEPELQSHQASAARWSPSPLIEDLKEKAKAEGLWNLFLPLEADPEKKYGAGLTNVEYAHLCELMGTSLYAPEVCNCSAPDTGNMELLVRYGTEAQKARWLIPLLEGKARSCFAMTEPQVASSDATNIEASIREEDSFYVINGHKWWITGILDPRCQLCVFMGKTDPHAPRHRQQSVLLVPMDTPGIKIIRPLTVYGLEDAPGGHGEVRFEHVRVPKENMVLGPGRGFEIAQGRLGPGRIHHCMRLIGFSERALALMKARVKSRLAFGKPLVEQGTVLADIAQSRVEIEQARLLVLRAAHLMDLAGNKAAALDIAMIKMVAPSMASRVIDRAIQAFGAAGLSSDYPLAQFFTWARALRFADGPDEVHRATVAKLELKHRI [ACAD10]”, the melting temperature (cell cycle stage: mitosis) was found to be 50.7 °C.
Turning to “MQPPPPGPLGDCLRDWEDLQQDFQNIQETHRLYRLKLEELTKLQNNCTSSITRQKKRLQELALALKKCKPSLPAEAEGAAQELENQMKERQGLFFDMEAYLPKKNGLYLSLVLGNVNVTLLSKQAKFAYKDEYEKFKLYLTIILILISFTCRFLLNSRVTDAAFNFLLVWYYCTLTIRESILINNGSRIKGWWVFHHYVSTFLSGVMLTWPDGLMYQKFRNQFLSFSMYQSFVQFLQYYYQSGCLYRLRALGERHTMDLTVEGFQSWMWRGLTFLLPFLFFGHFWQLFNALTLFNLAQDPQCKEWQVLMCGFPFLLLFLGNFFTTLRVVHHKFHSQRHGSKKD [TMEM120A]”, the melting temperature reads like this: (cell cycle stage: G1/S) 54.2 °C; (cell cycle stage: mitosis) 53.4 °C.
“MAPGRAVAGLLLLAAAGLGGVAEGPGLAFSEDVLSVFGANLSLSAAQLQHLLEQMGAASRVGVPEPGQLHFNQCLTAEEIFSLHGFSNATQITSSKFSVICPAVLQQLNFHPCEDRPKHKTRPSHSEVWGYGFLSVTIINLASLLGLILTPLIKKSYFPKILTFFVGLAIGTLFSNAIFQLIPEAFGFDPKVDSYVEKAVAVFGGFYLLFFFERMLKMLLKTYGQNGHTHFGNDNFGPQEKTHQPKALPAINGVTCYANPAVTEANGHIHFDNVSVVSLQDGKKEPSSCTCLKGPKLSEIGTIAWMITLCDALHNFIDGLAIGASCTLSLLQGLSTSIAILCEEFPHELGDFVILLNAGMSTRQALLFNFLSACSCYVGLAFGILVGNNFAPNIIFALAGGMFLYISLADMFPEMNDMLREKVTGRKTDFTFFMIQNAGMLTGFTAILLITLYAGEIELE [SLC39A8]” returned a melting temperature (cell cycle stage: G1/S) of 58.6 °C.
With “MQPPPPGPLGDCLRDWEDLQQDFQNIQETHRLYRLKLEELTKLQNNCTSSITRQKKRLQELALALKKCKPSLPAEAEGAAQELENQMKERQGLFFDMEAYLPKKNGLYLSLVLGNVNVTLLSKQAKFAYKDEYEKFKLYLTIILILISFTCRFLLNSRVTDAAFNFLLVWYYCTLTIRESILINNGSRIKGWWVFHHYVSTFLSGVMLTWPDGLMYQKFRNQFLSFSMYQSFVQFLQYYYQSGCLYRLRALGERHTMDLTVEGFQSWMWRGLTFLLPFLFFGHFWQLFNALTLFNLAQDPQCKEWQVLMCGFPFLLLFLGNFFTTLRVVHHKFHSQRHGSKKD [TMPIT]”, the melting temperature is, setting by setting: (cell cycle stage: G1/S) 54.2 °C; (cell cycle stage: mitosis) 53.4 °C.
On the same counts, the results for “MSRFFTTGSDSESESSLSGEELVTKPVGGNYGKQPLLLSEDEEDTKRVVRSAKDKRFEELTNLIRTIRNAMKIRDVTKCLEEFELLGKAYGKAKSIVDKEGVPRFYIRILADLEDYLNELWEDKEGKKKMNKNNAKALSTLRQKIRKYNRDFESHITSYKQNPEQSADEDAEKNEEDSEGSSDEDEDEDGVSAATFLKKKSEAPSGESRKFLKKMDDEDEDSEDSEDDEDWDTGSTSSDSDSEEEEGKQTALASRFLKKAPTTDEDKKAAEKKREDKAKKKHDRKSKRLDEEEEEDNEGGEWERVRGGVPLVKEKPKMFAKGTEITHAVVIKKLNEILQARGKKGTDRAAQIELLQLLVQIAAENNLGEGVIVKIKFNIIASLYDYNPNLATYMKPEMWGKCLDCINELMDILFANPNIFVGENILEESENLHNADQPLRVRGCILTLVERMDEEFTKIMQNTDPHSQEYVEHLKDEAQVCAIIERVQRYLEEKGTTEEVCRIYLLRILHTYYKFDYKAHQRQLTPPEGSSKSEQDQAENEGEDSAVLMERLCKYIYAKDRTDRIRTCAILCHIYHHALHSRWYQARDLMLMSHLQDNIQHADPPVQILYNRTMVQLGICAFRQGLTKDAHNALLDIQSSGRAKELLGQGLLLRSLQERNQEQEKVERRRQVPFHLHINLELLECVYLVSAMLLEIPYMAAHESDARRRMISKQFHHQLRVGERQPLLGPPESMREHVVAASKAMKMGDWKTCHSFIINEKMNGKVWDLFPEADKVRTMLVRKIQEESLRTYLFTYSSVYDSISMETLSDMFELDLPTVHSIISKMIINEELMASLDQPTQTVVMHRTEPTAQQNLALQLAEKLGSLVENNERVFDHKQGTYGGYFRDQKDGYRKNEGYMRRGGYRQQQSQTAY [EIF3CL]” are 49 °C and 48.9 °C.
Substance “MGGCVGAQHDSSGSLNENSEGTGVALGRNQPLKKEKPKWKSDYPMTDGQLRSKRDEFWDTAPAFEGRKEIWDALKAAAHAFESNDHELAQAIIDGANITLPHGALTECYDELGNRYQLPVYCLAPPINMIEEKSDIETLDIPEPPPNSGYECQLRLRLSTGKDLKLVVRSTDTVFHMKRRLHAAEGVEPGSQRWFFSGRPLTDKMKFEELKIPKDYVVQVIVSQPVQNPTPVEN [UBTD2]” had a melting temperature (cell cycle stage: mitosis) of 53.7 °C.
UBE2V1 yielded a melting temperature (cell cycle stage: G1/S) of 54.2 °C.
Same read-out and setting: for “MENGAVYSPTTEEDPGPARGPRSGLAAYFFMGRLPLLRRVLKGLQLLLSLLAFICEEVVSQCTLCGGLYFFEFVSCSAFLLSLLILIVYCTPFYERVDTTKVKSSDFYITLGTGCVFLLASIIFVSTHDRTSAEIAAIVFGFIASFMFLLDFITMLYEKRQESQLRKPENTTRAEALTEPLNA [CMTM6]” the value was 55.6 °C.
For the substance “MAGPAAAFRRLGALSGAAALGFASYGAHGAQFPDAYGKELFDKANKHHFLHSLALLGVPHCRKPLWAGLLLASGTTLFCTSFYYQALSGDPSIQTLAPAGGTLLLLGWLALAL [TMEM256]”, under “cell cycle stage: mitosis”, the melting temperature was 56.6 °C.
With TPK1, the melting temperature (cell cycle stage: G1/S) was 56.3 °C and the melting temperature (cell cycle stage: mitosis) was found to be 55.6 °C.
